These results are taken from patent publication CN115594767A.

In general, Kd refers to the equilibrium constant for the complex coming apart. A word on the koff: it is the rate constant with which the complex falls apart. A lower koff goes with a long-lived complex. By kon is commonly meant the rate constant with which the complex forms. The EC50 is the concentration at which the effect is half-maximal. Read a low EC50 as an effect from little substance.

Assay [1] has as its target CD16A-158V (UniProt P08637). Kind of assay: BLI, CD16A-158V on anti-his probe, antibody as analyte.
For assay [2], the target named is HER2 (Human epidermal growth factor receptor 2) (human) (UniProt P04626). Briefly: ELISA, HER2 coated at 1 ug/mL, HRP-anti-human IgG Fc detection. (An ELISA detects its analyte on a solid surface through an enzyme-linked reagent.)

Chain of UniProt P08637 (P08637 17-208 F176V limits assumed): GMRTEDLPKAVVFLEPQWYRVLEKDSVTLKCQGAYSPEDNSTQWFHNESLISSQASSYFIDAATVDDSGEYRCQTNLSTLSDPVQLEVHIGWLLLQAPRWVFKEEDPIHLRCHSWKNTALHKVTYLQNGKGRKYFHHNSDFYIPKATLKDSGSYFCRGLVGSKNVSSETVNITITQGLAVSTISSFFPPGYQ

For KN026 (bispecific antibody), in assay [1], the Kd is 464 nM, the koff was determined as 0.0782 s⁻¹ and the kon is 168000 M⁻¹ s⁻¹. Besides, the EC50 in assay [2] was determined as 0.149 nM.
As for MGAH22 (antibody), the EC50 in assay [2] is 0.127 nM.
